Values of other authors as cited in paper PMC10348426.
pKd: −log10 of the molar value. Read-outs that look alike come from different tables or passages of the source.

Legend:
[1] = target: ER ECD (Arabidopsis thaliana) (UniProt Q42371)
[2] = target: FER ECD (Arabidopsis thaliana) (UniProt Q9SCZ4); experiment: MST
[3] = target: ER ECD (Arabidopsis thaliana) (UniProt Q42371); remark: listed apart in the source

Sequence of UniProt Q42371 (Q42371 25-580): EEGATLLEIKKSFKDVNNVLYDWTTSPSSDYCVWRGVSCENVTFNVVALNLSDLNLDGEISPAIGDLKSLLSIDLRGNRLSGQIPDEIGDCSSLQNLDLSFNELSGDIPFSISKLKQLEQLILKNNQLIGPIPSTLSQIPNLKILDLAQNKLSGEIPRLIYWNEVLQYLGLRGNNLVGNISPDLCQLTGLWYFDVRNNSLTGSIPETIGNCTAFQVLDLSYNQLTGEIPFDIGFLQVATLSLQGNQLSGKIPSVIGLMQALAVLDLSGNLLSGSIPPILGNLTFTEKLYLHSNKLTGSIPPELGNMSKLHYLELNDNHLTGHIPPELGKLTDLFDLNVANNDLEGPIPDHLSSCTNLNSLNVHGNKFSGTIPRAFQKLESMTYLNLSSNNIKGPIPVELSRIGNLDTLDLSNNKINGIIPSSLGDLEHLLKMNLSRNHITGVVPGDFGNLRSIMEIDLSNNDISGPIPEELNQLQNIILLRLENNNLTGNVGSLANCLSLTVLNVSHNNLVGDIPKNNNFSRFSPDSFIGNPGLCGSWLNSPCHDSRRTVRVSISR
Sequence of UniProt Q9SCZ4 (Q9SCZ4 28-447): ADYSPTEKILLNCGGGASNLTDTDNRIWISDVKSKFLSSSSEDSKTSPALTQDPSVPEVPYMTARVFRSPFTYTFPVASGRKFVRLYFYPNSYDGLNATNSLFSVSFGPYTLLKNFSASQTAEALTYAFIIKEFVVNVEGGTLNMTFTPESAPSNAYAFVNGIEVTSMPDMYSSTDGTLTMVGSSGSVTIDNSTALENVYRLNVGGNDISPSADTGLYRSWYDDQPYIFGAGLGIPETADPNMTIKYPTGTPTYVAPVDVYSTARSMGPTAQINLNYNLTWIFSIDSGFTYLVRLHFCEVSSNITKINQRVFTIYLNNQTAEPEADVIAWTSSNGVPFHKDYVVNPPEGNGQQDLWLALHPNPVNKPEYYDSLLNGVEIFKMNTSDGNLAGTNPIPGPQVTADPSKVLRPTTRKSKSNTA

Substance: EPF2 (from UniProt Q8LC53)
- pKd [1]: 7.23

Substance: RALF33 (from UniProt Q8L9P8)
- pKd [2]: 6.79

Substance: STOMAGEN (from UniProt Q9SV72)
- pKd [3]: 7.36
